# Bridge positions count the residues as written; N and C are the ends. Ends that are not written are not given here.
# T1: cyclic peptide X253 (Ln-5 residues 425-444) (human, Cys-Cys disulfide bond (cyclic peptide))
# T1 construct: Used unpurified
# T1 peptide: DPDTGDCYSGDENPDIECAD
# T2: cyclic peptide X254 (Ln-5 residues 494-516, +E) (human, Cys-Cys disulfide bond (cyclic peptide))
# T2 peptide: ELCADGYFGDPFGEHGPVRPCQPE
# T3: cyclic peptide X255 (R+, Ln-5 residues 518-537) (human, Cys-Cys disulfide bond (cyclic peptide))
# T3 peptide: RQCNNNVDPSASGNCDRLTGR
# T4: cyclic peptide X256 (Ln-5 residues 539-552 + R) (human, disulfide 3-12 (inferred))
# T4 peptide: LKCIHNTAGIYCDQR
# T5: GST-γ2III-7 (a.a. residues 461-653) (human, UniProt Q13753 461-653)
# T5 construct: Recombinant GST-γ2III-chain fragment; not shown: glutathione S-transferase (GST) fusion partner
# T5 sequence: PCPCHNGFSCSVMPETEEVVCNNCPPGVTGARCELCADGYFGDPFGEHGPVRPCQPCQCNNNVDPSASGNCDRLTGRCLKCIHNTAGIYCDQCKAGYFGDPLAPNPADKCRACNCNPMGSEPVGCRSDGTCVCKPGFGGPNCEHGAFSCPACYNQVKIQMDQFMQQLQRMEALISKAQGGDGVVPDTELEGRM
# T6: GST-γ2III-20 (a.a. residues 461-534) (human, UniProt Q13753 461-534)
# T6 construct: Recombinant GST-γ2III-chain fragment, used in the second set of experiments only; also called GST-γIII-20; not shown: glutathione S-transferase (GST) fusion partner
# T6 sequence: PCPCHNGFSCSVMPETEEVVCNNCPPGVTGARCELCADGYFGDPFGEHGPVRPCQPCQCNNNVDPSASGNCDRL
# T7: cyclic peptide X252 (Ln-5 residues 394-415 + R) (human, Cys-Cys disulfide bond (cyclic peptide))
# T7 construct: Used unpurified
# T7 peptide: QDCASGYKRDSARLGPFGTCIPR
# Columns and labels:
# [1] = molecular target: T1, cyclic peptide X253 (Ln-5 residues …); experiment: direct ELISA on coated cyclic peptides
# Experimental: (§1) The identity of these peptides was verified by mass spectrometry. Solutions containing the five peptides, in an unpurified state, were individually subjected to direct ELISA analysis using standard techniques. Briefly, NUNC-IMMUNO plates were coated with 100 μl/well of 50 μg/ml peptide in carbonate buffer and allowed to sit overnight at +4° C. […] The plates were washed five times with PBS to remove unbound peptide and subjected to one hour blocking at room temperature by exposure with a washing/blocking buffer (0.05% Tween-20 in PBS (PBST)), which was thereafter removed. 100 ng of antibody (100 μl of solution containing an antibody solution at a concentration of 1 μg antibody/ml) for each of the three mAbs (4G1, 5D5, and 6C12) was added to the test wells. Dilution buffer was added to the control wells. The plates were incubated at room temperature for one hour, and thereafter washed four times in PBST.
# (§2) 100 μl HRP-anti-mouse secondary Ab diluted in a dilution buffer at a ratio of 1:2000 was added to each well and the plates were incubated for one hour at room temperature, and thereafter washed 4 times with PBST. The plates were then developed with 100 μl TMB substrate for a period of 15-30 minutes in the dark (during which time the plates were monitored for color development). At an appropriate time, the reaction was stopped in each well with the addition of 4M H3PO4. Absorbance measurements were taken at 450 nm and 620 nm, ratios of absorbance determined, and the data evaluated. These experiments were performed in triplicate.
# [2] = molecular target: T2, cyclic peptide X254 (Ln-5 residues …); experiment: direct ELISA on coated cyclic peptides
# Experimental: as §1, §2
# [3] = molecular target: T3, cyclic peptide X255 (R+, Ln-5 residues …); experiment: direct ELISA on coated cyclic peptides
# Experimental: as §1, §2
# [4] = molecular target: T4, cyclic peptide X256 (Ln-5 residues …); experiment: direct ELISA on coated cyclic peptides
# Experimental: as §1, §2
# [5] = molecular target: T8, GST-γ2III fusion protein (glutathione S-transferase:γ2 DIII fragment fusion protein, human laminin γ2 amino … (human)); experiment: SPR (BIAcore, RAMFc chip, HBS-EP buffer), mAb against GST-γ2DIII fusion protein
# T8 construct: also called GST-γ2DIII; GST-γ2 DIII
# T8 sequence (chain, as listed by the source limits assumed): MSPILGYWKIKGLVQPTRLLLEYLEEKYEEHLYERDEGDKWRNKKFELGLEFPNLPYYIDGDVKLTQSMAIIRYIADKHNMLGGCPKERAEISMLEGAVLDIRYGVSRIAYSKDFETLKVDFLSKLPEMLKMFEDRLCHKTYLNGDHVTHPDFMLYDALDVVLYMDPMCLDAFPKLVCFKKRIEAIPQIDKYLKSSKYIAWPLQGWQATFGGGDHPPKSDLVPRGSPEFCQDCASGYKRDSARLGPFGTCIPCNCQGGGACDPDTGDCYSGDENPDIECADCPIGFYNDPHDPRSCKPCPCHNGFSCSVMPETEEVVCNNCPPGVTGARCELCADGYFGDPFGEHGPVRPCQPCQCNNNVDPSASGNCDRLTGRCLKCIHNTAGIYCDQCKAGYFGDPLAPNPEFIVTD
# Experimental: Resulting reflection/refractive index data obtained from these analyses (at 200 nM, 500 nM, 200 nM, 50 nM, and 20 nM) are presented individually in FIGS. 19A-19C.
# [6] = molecular target: T5, GST-γ2III-7 (a.a. residues 461-653); experiment: direct ELISA, fusion proteins coated at 100 ng/well, A405 (Example 3, first experiment)
# Experimental: (§3) The stepwise protocol set forth below was used for the ELISAs, which were performed with biotinylated mAb 4G1, mAb 5D5, and mAb 6C12 (GST, BSA, and plastic used as controls in the first experiment; GST and BSA only in the second experiment) and the γ2 DIII antigens individually (GST-γIII-20 was only tested in the second experiment; nonspecific biotinylated Ig was used as a control for the antibodies in both experiments). All incubations were performed at room temperature except step 1, below. 100 μl of reagents were used per well for incubations and 200 μl of PBST for washings unless otherwise mentioned. In addition, shaking the plate can be helpful for incubations.
# ELISA plates were coated with 100 μl GST-γ2III chain fragments at concentration of 1 μg/ml in 0.1 M carbonate/bicarbonate buffer, pH 9, o/n at +4° C. (100 ng/well). The coated plates were washed three times with PBST. Non-specific binding was blocked with BSA-PBS incubation for 90 minutes (200 μl/well). Dilutions of reference standards, negative controls (quality controls), and sample were diluted in BSA-PBS and thereafter incubated for 1 h at room temperature. The plates were again washed three times with PBST. […] Absorbance was read with a microtitre plate reader at 405 nm after 30 min and after 60 min.
# BSA = molecular target: T9, BSA (bovine, UniProt P02769); experiment: direct ELISA, fusion proteins coated at 100 ng/well, A405 (Example 3, second experiment)
# T9 construct: also called bovine serum albumin
# T9 sequence (P02769 25-607 limits assumed): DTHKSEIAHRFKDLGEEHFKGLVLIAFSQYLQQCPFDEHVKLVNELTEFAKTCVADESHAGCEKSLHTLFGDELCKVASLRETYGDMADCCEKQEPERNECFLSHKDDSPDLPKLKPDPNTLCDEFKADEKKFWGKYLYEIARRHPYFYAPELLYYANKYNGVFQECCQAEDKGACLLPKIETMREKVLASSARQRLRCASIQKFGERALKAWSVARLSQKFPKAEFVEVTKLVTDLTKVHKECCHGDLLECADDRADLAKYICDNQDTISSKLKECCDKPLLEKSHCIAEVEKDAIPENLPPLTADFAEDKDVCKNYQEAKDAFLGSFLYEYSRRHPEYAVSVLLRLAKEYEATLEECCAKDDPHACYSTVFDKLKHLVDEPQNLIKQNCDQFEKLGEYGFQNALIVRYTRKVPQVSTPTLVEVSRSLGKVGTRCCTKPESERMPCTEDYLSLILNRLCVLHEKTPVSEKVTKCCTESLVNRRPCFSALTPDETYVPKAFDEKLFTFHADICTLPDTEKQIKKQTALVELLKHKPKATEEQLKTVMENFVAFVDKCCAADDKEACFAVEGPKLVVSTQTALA
# Experimental: as §3
# (§4) ELISA plates were coated with 100 μl GST-γ2III chain fragments at concentration of 1 μg/ml in 0.1 M carbonate/bicarbonate buffer, pH 9, o/n at +4° C. (100 ng/well). The coated plates were washed three times with PBST. Non-specific binding was blocked with BSA-PBS incubation for 90 minutes (200 μl/well). Dilutions of reference standards, negative controls (quality controls), and sample were diluted in BSA-PBS and thereafter incubated for 1 h at room temperature. The plates were again washed three times with PBST. HRP-conjugated anti-mouse IgG secondary antibody was added to the wells (diluted 1:5000 in PBS) and allowed to incubate for 30 minutes. The plates were washed again three times with PBST. ABTS-peroxidase substrate was added. Substrates were prepared immediately before use: ABTS-stock (10×) was diluted with Citrate buffer (see Example 1); 2 μl of 30% hydrogen […] was added to each well and mixed. Substrate was added to the wells and incubated in dark conditions for 30 minutes. Absorbance was read with a microtitre plate reader at 405 nm after 30 min and after 60 min.
# [7] = molecular target: T6, GST-γ2III-20 (a.a. residues 461-534); experiment: as above
# Experimental: as §3, §4
# [8] = molecular target: T7, cyclic peptide X252 (Ln-5 residues …); experiment: direct ELISA, peptide coated at 50 µg/ml (controls 5 µg/ml), antibody 100 ng/well, A450/620, mean of three ± SD
# Experimental: as §1, with “The plates were incubated at room temperature for one hour, and thereafter washed four times in PBST.” left out
# as §2, with “At an appropriate time, the reaction was stopped in each well with the addition of 4M H3PO4.” left out, “These experiments were performed in triplicate.” left out
binding result [1],binding result [2],binding result [3],binding result [4],Kd [5] [nM],koff [5] [s⁻¹],kon [5] [M⁻¹ s⁻¹],binding result [6],binding result (BSA),binding result [7],binding result [8],Binder
no binding,no binding,no binding,no binding,11.4,0.000106,9280,no binding,no binding,no binding,,"mAb 4G1 (antibody, V domains shown, Murine anti-γ2 DIII monoclonal antibody from hybridoma 4G1 (available from DAKO Cytomation); Biotinylated in some ELISAs; also called monoclonal antibody 4G1; γ2 DIII mAb 4G1) VH: EVKLEESGGGLVQPGGSMKLSCVASGFTFSNFWMNWVRQSPEKGLEWVAEIRLKSNNYATHYAESLKGRFTISRDDSKSNVYLQMNNLRPEDTGIYYCTRDYYGSSFAYWGQGTLVTVSA VL: DIVMTQAAFSNPVTLGTSASISCRSSKSLLHNIGITYLFWYLQKPGQSPQLLIYQMSKLASGVPDRFSGSGSGTDFTLRISRVEAEDVGIYYCAQNLELPPTFGSGTKLEIK"
,,,,23.3,0.000387,16600,,no binding,,no binding (tested: 1 µg/ml),"mAb 6C12 (antibody, V domains shown, Murine anti-γ2 DIII monoclonal antibody from hybridoma 6C12, deposited at DSMZ as DSM ACC2653; Biotinylated in some ELISAs; also called monoclonal antibody 6C12; DSM ACC2653) VH: DVHLQESGPGLVKPSQSLSLTCTVTGYSITSDYAWNWIRQFPGNRLEWMGYITYSGGTNYNPSLKSRISFTRDTSKNQFFLQLNSVTTEDTATYYCANNFYGNFFDYWGQGTTLTVSS VL: QIVLTQSPAIMSASPGEKVTMTCSASSSVSYIHWYQQKSGTSPKRWIYDTSKLASGVPARFSGSGSGTSYSLTISSMQAEDAATYYCQQWSSSPPTFGGGTKLEIK"

# Reference: US20070065447A1 (Novo Nordisk, published 2007)
